The source of these data is the supplement of paper PMC9170038.

This data set deals with MS2 coat protein. Kind of data set: apparent KD of MS2 coat protein; higher = weaker reporter binding. The note with it: Eterna round: R107. The method in brief: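 On-chip transcription from Illumina sequencing clusters produced the designed RNA switches. These were titrated with SNAP-549-labelled MS2 coat protein (twofold steps, 0.7 or 1.5 nM to 3 µM) in 100 mM Tris-HCl pH 7.5, 80 mM KCl, 4 mM MgCl2, with or without constant ligand. The apparent KD given is the per-design median of normalised cluster binding-curve fits.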

Setting [1] is: input ligand: theophylline 20 uM.
The mark [2] stands for this setting: input ligand: theophylline 2 mM.
The mark [3] stands for this setting: input ligand: tryptophan 2.4 mM.

Consider “CGAAAGCAGUGAUCCAGCUUUCGCCUGGAAGGAGCGAGCGAAAGCUCAGGUAGGUCGCCAGAAACAUGAGGAUCACCCAUGUAAU [(A)''-(M)'-(A)'-(Arg1)-(Arg2)-(M1)-(M2)_Design8]”, for which the “apparent KD of MS2 coat protein” value is, setting by setting: (input ligand: arginine 13.2 mM) 36.6 nM; (input ligand: none) 65.4 nM; under setting [1], 82 nM; under setting [2], 145 nM; under setting [3], 75.5 nM.

On to “CGAUACGUAACUGAUACCAGUGUACUGACAUGAGGAUCACCCAUGUUGGGUUUUGUUGUACACCCUUGGCAGCAGAAUCGUAUCG [AstrosExyTheB#18]”, for which the “apparent KD of MS2 coat protein” value worked out at 52.1 nM (input ligand: arginine 13.2 mM), 77.5 nM under setting [1] and 59.9 nM under setting [3].

As to “CGAUAUAAGACGGCCGCCACUAUUAUGUAACAAAAUAAACAUGAGGAUCACCCAUGUACAUGGGAUAGGACCGGGUCCAAUAACG [#21 Same State - Tryptophan B]”, the “apparent KD of MS2 coat protein” value (input ligand: arginine 13.2 mM) came out at 98.7 nM, the “apparent KD of MS2 coat protein” value under setting [1] worked out at 148 nM and the “apparent KD of MS2 coat protein” value under setting [2] was found to be 151 nM.

As to “CGAUGAUGAAGGGAUACCAGAAAUGGUAUUCCUUUAUUUCUUACAUGAGGAUCACCCAUGUUCCCUUGGCAGCUUUUUAUCAUCG [ETHB #6]”, the “apparent KD of MS2 coat protein” value is, setting by setting: (input ligand: arginine 13.2 mM) 49.3 nM; under setting [1], 82.6 nM; under setting [3], 64.4 nM.

Take “CGCACAUGAGGAUCACCCAUGUGAGGGCGUCGAGGACCGGUACGGCCGCCACUCGCAGGACAUGAGGAUCACCCAUGUGCCGCCG [SSTA DOUBLE!!! :-D #4]”: the “apparent KD of MS2 coat protein” value runs as follows: (input ligand: arginine 13.2 mM) 39.8 nM; under setting [1], 131 nM; under setting [2], 145 nM.

For the sequence “CGGUAGGUAGGUCGAUAUCUACCCGUAGAAGGAGCGUAAGAAAAUACAGGUAGGUCGCUACGGAACAUGAGCAUCAGCCAUGUCC [SSArg A #12-Alt Ms2]”, the “apparent KD of MS2 coat protein” value reads like this: (input ligand: arginine 13.2 mM) 13.9 nM; (input ligand: none) 11 nM; under setting [1], 20.6 nM; under setting [2], 12.1 nM; under setting [3], 12.6 nM.

Take “CGUACAUGAGGAUCACCCAUGUUACAUGAUACCAGACAUGAAAAUGUCCCUUGGCAGCAUGGCGCUGAUAGGGCGGGAAACCCGA [Zabovresky]”: the “apparent KD of MS2 coat protein” value (input ligand: arginine 13.2 mM) stood at 16.6 nM; the “apparent KD of MS2 coat protein” value (input ligand: none) is 19.2 nM; the “apparent KD of MS2 coat protein” value under setting [1] was 23.2 nM; the “apparent KD of MS2 coat protein” value under setting [2] was 28.7 nM; the “apparent KD of MS2 coat protein” value under setting [3] was determined as 19.7 nM.

Turning to “CGUAUGUAGACGGCCGCCACUGGAACCUGAGGAUCACCCAGGUACAGGGUGGGUAACUCGAGAGUCAGGACCGGGUCUACAUACA [Tryp B Ex t3]”, the “apparent KD of MS2 coat protein” value came out at 19.4 nM (input ligand: arginine 13.2 mM); 42 nM (input ligand: none); 65.1 nM under setting [1]; 64.3 nM under setting [2]; 38.6 nM under setting [3].

Turning to “CGUGGUGGGACGGAUACCAGCCACCGCGGCAACGCAACAUGAGGAUCACCCAUGUUGGGUGGCCCUUGGCAGCUGUCCUGCGACG [#1 Same State - Theophylline B Attempt #27 (HarryS)]”, the “apparent KD of MS2 coat protein” value was 11.5 nM (input ligand: arginine 13.2 mM); 11.7 nM (input ligand: none); 11.6 nM under setting [1]; 11.7 nM under setting [2]; 10.1 nM under setting [3].

For the sequence “CUAAGAGUAGGAAGGAGCGACAUGAGGAUCACCCAUGUGGCUCUCAUGGCCCGGGUCUUAUGUCAGGUAGGUCGCCUACUGUUUA [Solave]”, the “apparent KD of MS2 coat protein” value is, setting by setting: (input ligand: arginine 13.2 mM) 13.6 nM; (input ligand: none) 14.4 nM; under setting [1], 21.9 nM; under setting [2], 17.1 nM; under setting [3], 14.1 nM.

As for “CUACAUUUGUAGAAACCGGUCAACAAUAAUCGAGGACCGGUACGGCCGCCACUCGAUGUGAAAUACACAUGAGGAUCACCCAUGU [Tryptophan A 13]”, the “apparent KD of MS2 coat protein” value by setting is: (input ligand: arginine 13.2 mM) 15.8 nM; under setting [1], 19.1 nM; under setting [2], 19.9 nM.

Regarding “CUAGACUGUGCGGCCGCCACUGGCUCAUCCUGCAUUACAUGAGGAUCACCCAUGUUGCGGCCUCCCAGGACCGGGCAUAGUCUGC [Riinzaa]”, the “apparent KD of MS2 coat protein” value came out at 91 nM (input ligand: arginine 13.2 mM), 474 nM under setting [1] and 734 nM under setting [2].

Turning to “CUAUAAGUAACUGAUACCAGUGUACUGACAUGAGGAUCACCCAUGUUGGGUUUUGUUGUACACCCUUGGCAGCAGAAUCUUAUAG [AstrosExyTheB#14]”, the “apparent KD of MS2 coat protein” value is, setting by setting: (input ligand: arginine 13.2 mM) 38.9 nM; (input ligand: none) 63.8 nM; under setting [1], 70.3 nM; under setting [2], 111 nM; under setting [3], 72.5 nM.

As for “CUAUAUAUAAGAAGGAGCGACAUGAGGAUCACCCAUGUCUACCACGUCGAAAGACGCUCAUGUCAGGUAGGUCGCUUAUAUAUAG [Astros-Eli-mod1]”, the “apparent KD of MS2 coat protein” value is, setting by setting: (input ligand: arginine 13.2 mM) 108 nM; (input ligand: none) 122 nM; under setting [1], 155 nM; under setting [2], 139 nM; under setting [3], 93.9 nM.

Regarding “CUAUAUAUAGCGGCCGCCACUUACUCAUGAGGUAACAACAUGAGGAUCACCCAUGUUUGAGGAUCAAGGACCGGGCUAUAUAUAG [AstrosSSTryB#4]”, the “apparent KD of MS2 coat protein” value worked out at 28.1 nM (input ligand: arginine 13.2 mM), 33.5 nM under setting [1] and 33.2 nM under setting [2].

Consider “CUCCGAGGCUAUACUAUCCGCCUCAGUGAUACCAGAAUACCUAUAUUCCCUUGGCAGCAUCACAUGAGGAUCACCCAUGUGCCAU [SSTheo A #14]”, for which the “apparent KD of MS2 coat protein” value is, setting by setting: (input ligand: arginine 13.2 mM) 13.4 nM; under setting [1], 16.3 nM; under setting [3], 12.2 nM.
